Experimental data reported in US20260275312, “CRISPR NUCLEASE POLYPEPTIDES AND GENE EDITING SYSTEMS COMPRISING SUCH” (ARBOR BIOTECHNOLOGIES, INC., published 2026).
Changes are numbered by the printed parent chain.

Key:
Nuclease S D179R = target: T1, Nuclease S D179R (synthetic construct, D179R); assay: cell_activity; HEK293T; PAM AACC; conditions: tags: N-term SV40 NLS, XTEN linker + C-term nucleoplasmin NLS
T1 chain: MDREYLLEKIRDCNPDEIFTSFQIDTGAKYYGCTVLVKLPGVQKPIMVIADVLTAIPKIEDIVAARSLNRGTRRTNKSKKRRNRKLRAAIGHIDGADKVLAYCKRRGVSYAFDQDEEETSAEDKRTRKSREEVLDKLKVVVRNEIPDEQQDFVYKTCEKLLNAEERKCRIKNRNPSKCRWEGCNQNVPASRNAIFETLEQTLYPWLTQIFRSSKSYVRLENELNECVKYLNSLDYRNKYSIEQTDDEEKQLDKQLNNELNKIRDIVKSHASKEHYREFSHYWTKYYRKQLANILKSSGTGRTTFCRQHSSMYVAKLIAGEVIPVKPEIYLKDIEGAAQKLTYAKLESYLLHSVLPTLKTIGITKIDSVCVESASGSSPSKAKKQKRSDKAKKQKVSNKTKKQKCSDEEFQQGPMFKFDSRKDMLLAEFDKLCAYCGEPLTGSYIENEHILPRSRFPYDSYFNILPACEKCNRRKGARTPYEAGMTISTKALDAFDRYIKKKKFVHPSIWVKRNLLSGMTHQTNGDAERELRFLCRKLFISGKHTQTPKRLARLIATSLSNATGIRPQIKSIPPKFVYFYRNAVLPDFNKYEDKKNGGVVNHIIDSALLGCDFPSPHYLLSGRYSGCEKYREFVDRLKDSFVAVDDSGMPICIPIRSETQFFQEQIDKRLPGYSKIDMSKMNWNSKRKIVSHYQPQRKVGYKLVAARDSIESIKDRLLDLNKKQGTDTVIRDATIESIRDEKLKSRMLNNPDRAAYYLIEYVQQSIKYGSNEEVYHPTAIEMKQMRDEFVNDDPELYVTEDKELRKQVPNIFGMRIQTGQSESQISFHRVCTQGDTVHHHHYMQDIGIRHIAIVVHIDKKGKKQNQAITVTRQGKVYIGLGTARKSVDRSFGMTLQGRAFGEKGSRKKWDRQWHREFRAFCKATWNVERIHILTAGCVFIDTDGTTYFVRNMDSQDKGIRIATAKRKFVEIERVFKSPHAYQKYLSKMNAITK
Method: (§1) HEK293T cells were transfected with plasmids expressing the Nuclease S polypeptides and the gRNAs provided herein following the methods provided in Example 1 above. Gene editing efficiencies were determined by NGS following the methods also provided in Example 1. The NGS results were analyzed also following the methods provided in Example 1 above.
(§2) For each target, indel ratios, referring to the percentage of NGS reads comprising indels, were calculated for the reference and for each variant. The indel ratios used for fold change calculations were the average of two technical replicates. To then calculate fold change in indel ratios at a particular target, the indel ratio for each variant was divided by the indel ratio for the reference. […] Numbering is relative to the reference nuclease of SEQ ID NO: 49 (i.e., without an NLS). […] The average fold change in indel ratio for the D844R variant at all targets was 5.27 times that of the indel ratio for the reference at all targets.

Nuclease S D844R = target: T2, Nuclease S D844R (synthetic construct, D844R); assay: cell_activity; HEK293T; PAM AACC; conditions: tags: N-term SV40 NLS, XTEN linker + C-term nucleoplasmin NLS
T2 chain: T1 chain with R179D, D844R
Method: as §1, §2

B1: S AAVS1-T7 RNA guide ; AAVS1-T7 target (S) (ssRNA ; dsDNA)
RNA: GGCUAUAAUCCAUGCUGACCGUUGUAUUCGGAUGGGAGUAAAAGGUUGAGUACACCUGGAAACAAAACGACAUAAAGGUGUUCUCCCAUCUGUGUACAAAGAGCAGAUAUAUGAGUUGAUAAGUAAUAUGUUGCACGUAUGGACUUUGACAGUCUGUACCUCUGCGUGAAAGACAUAUUGCGUUAUUCAUAUAUCUGUGAGUCUGUUCUAAAUUUAAAGGUUUAGGGAA
DNA 1: GGCTATAATCCATGCTGACC
DNA 2: GGTCAGCATGGATTATAGCC
Q: B1 was tested. Which “fold change in indel ratio vs reference” value (Nuclease S D179R) did it give?
A: 6.38 fold indel vs reference

Q: What about the “fold change in indel ratio vs reference” value (Nuclease S D844R) of the same binder?
A: 6.37 fold indel vs reference
